Assays:
human PD-L1-Fc protein [1] = biological target: T1, human PD-L1-Fc protein (human, UniProt Q9NZQ7 19-238); assay: ELISA, antibody titrated on coated human PD-L1-Fc, OD 450nm; upper left panel (with Hu67F3G7-1 to -6)
T1 construct: coating antigen of the ELISAs; also called rhPD-L1-Fc; not shown: Fc
Method: (§1) To evaluate antigen binding activity, the humanized antibodies were subjected to ELISA test. Briefly, microtiter plates were coated with human PD-L1-Fc protein at 0.5 μg/ml in PBS, 100 μl/well at 4° C. overnight, then blocked with 200 μl/well of 1% BSA. Three-fold dilutions of humanized antibodies starting from 10 μg/ml were added to each well and incubated for 1 hour at 37° C. The plates were washed with PBS/Tween and then incubated with mouse-anti-human IgG Fab antibody conjugated with Horse Radish Peroxidase (HRP) for 1 hour at 37° C. After washing, the plates were developed with TMB substrate and analyzed by spectrophotometer at OD 450 nm.

human PD-L1-Fc protein [2] = biological target: T1, human PD-L1-Fc protein; assay: receptor blocking ELISA: coated human PD-L1-Fc, blocked ligand biotin-labeled human CD80-Fc (Bio-CD80), OD 450nm; middle right panel (with Hu67F3G7-7)
Method: (§2) Briefly, microtiter plates were coated with human PD-L1-Fc protein at 0.5 μg/ml in PBS, 100 μl/well at 4° C. overnight, then blocked with 150 μl/well of 1% BSA at 37° C. for 2 hours. […] The plates were washed with PBS/Tween and then incubated with Streptavidin-HRP for 10 mins at 37° C. After washing, the plates were developed with TMB substrate and analyzed by spectrophotometer at OD 450 nm.

human PD-L1-Fc protein [3] = biological target: T1, human PD-L1-Fc protein; assay: receptor blocking ELISA: coated human PD-L1-Fc, blocked ligand biotin-labeled human CD80-Fc (Bio-CD80), OD 450nm; upper right panel (with Hu67F3G7-3)
Method: as §2

human PD-L1-Fc protein [4] = biological target: T1, human PD-L1-Fc protein; assay: receptor blocking ELISA: coated human PD-L1-Fc, blocked ligand biotin-labeled human PD-1-Fc (Bio-PD1), OD 450nm; upper left panel (with Hu67F3G7-2)
Method: as §2

human PD-L1-Fc protein [5] = biological target: T1, human PD-L1-Fc protein; assay: ELISA, antibody titrated on coated human PD-L1-Fc, OD 450nm; upper right panel (with Hu67F3G7-7 to -12)
Method: as §1

rat PD-L1 protein = rat PD-L1 protein (rat, UniProt D4AE25 19-239); assay: ELISA, coated rat PD-L1
Sequence of rat PD-L1 protein (D4AE25 entry or part of it limits assumed): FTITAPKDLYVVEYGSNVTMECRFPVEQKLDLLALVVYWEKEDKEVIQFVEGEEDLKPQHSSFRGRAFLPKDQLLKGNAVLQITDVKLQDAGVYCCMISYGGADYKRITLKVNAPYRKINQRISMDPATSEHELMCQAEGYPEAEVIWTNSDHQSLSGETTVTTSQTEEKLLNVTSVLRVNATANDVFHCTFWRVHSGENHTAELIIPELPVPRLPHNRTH

mouse PD-L1 protein = mouse PD-L1 protein (mouse, UniProt Q9EP73 19-239); assay: ELISA, coated mouse PD-L1
Sequence of mouse PD-L1 protein (Q9EP73 19-239 limits assumed): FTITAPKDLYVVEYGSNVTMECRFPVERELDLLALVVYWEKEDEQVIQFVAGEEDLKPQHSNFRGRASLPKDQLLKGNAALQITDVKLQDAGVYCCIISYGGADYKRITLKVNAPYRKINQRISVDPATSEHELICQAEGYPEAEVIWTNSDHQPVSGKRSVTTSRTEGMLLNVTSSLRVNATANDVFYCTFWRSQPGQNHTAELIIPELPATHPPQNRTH

human PD-L1-Fc protein [6] = biological target: T1, human PD-L1-Fc protein; assay: receptor blocking ELISA: coated human PD-L1-Fc, blocked ligand biotin-labeled human PD-1-Fc (Bio-PD1), OD 450nm; middle left panel (with Hu67F3G7-5)
Method: as §2

human PD-L1-Fc protein [7] = biological target: T1, human PD-L1-Fc protein; assay: receptor blocking ELISA: coated human PD-L1-Fc, blocked ligand biotin-labeled human CD80-Fc (Bio-CD80), OD 450nm; upper left panel (with Hu67F3G7-2)
Method: as §2

cynomolgus PD-L1 protein = cynomolgus PD-L1 protein (cynomolgus, UniProt G7PSE7 19-238); assay: ELISA, coated cynomolgus PD-L1
Sequence of cynomolgus PD-L1 protein (G7PSE7 entry or part of it): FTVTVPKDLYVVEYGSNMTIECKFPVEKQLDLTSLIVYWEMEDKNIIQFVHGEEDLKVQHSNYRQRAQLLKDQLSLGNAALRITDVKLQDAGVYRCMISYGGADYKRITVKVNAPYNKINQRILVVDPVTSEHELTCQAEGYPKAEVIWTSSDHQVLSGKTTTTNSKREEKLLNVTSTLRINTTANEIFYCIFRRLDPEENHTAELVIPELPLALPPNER

T1 sequence (Q9NZQ7 19-238 limits assumed): as the sequence (G7PSE7 entry or part of it) above, with T33A, S34A, N62S, Q68R, R82Q, L173F, A185T, I192T, L215H counted along it

B1: 67F3G7 chimeric mAb (antibody, V domains shown)
VH: QVKLLQSGAALVKPGASVKMSCKASGYIFTDFWVSWVKQSHEKSLEWIGEIYPNSGVSRYNEKFKGRATMTVDKSTSTAYLELSRLTSEDSAIYYCTKYFGYTYWFGYWGQGTLVTVSS
VL: DTVLTQSPALAVSLGQRITISCRASKSVSTYMHWYQQRSGLQPKLLIYSASHLESGVPSRFSGSGSGTDFTLTIDPVEADDIANYYCQQSNELPVTFGSGTKLEIK
notes: chimeric mAb of the hybridoma clone; also called 67F3G7-chimera
EC50 (human PD-L1-Fc protein [1]): 0.0141 mg/L | IC50 (human PD-L1-Fc protein [2]): 0.283 mg/L | IC50 (human PD-L1-Fc protein [3]): 0.289 mg/L | IC50 (human PD-L1-Fc protein [4]): 0.149 mg/L | EC50 (human PD-L1-Fc protein [5]): 0.0129 mg/L | binding result (rat PD-L1 protein): no binding (tested: dilutions starting from 10 µg/ml) | binding result (mouse PD-L1 protein): no binding (tested: dilutions starting from 10 µg/ml) | IC50 (human PD-L1-Fc protein [6]): 0.149 mg/L | IC50 (human PD-L1-Fc protein [7]): 0.256 mg/L | EC50 (cynomolgus PD-L1 protein): 0.0068 mg/L
